Where a chain is given by its changes, count along the chain named.
B1: SKAI-DS1 (antibody, V domains shown)
VH: EVQLLESGGGLVQTGGSLRLSCAASGFTFSDYAMSWVRQAPGKGLEWVSWIYSNDGNKYYADSVKGRFTISRDNSKNTLYLQMNSLRAEDTAVYYCARFPVPSWRNTWSSYDAMDVWGQGTLVTV
VL: QSVLTQPPSASGTPGRRVTISCTGSSSNIGSNYVSWYQQLPGTAPKLLIYSDSNRPSGVPDRFSGSKSGTSASLAISGLRSEDEADYYCGTWDASLSGYVFGGGTKLTVL
notes: also called SKAI-DS1 human IgG antibody
B2: SKAI-DS66 (antibody, V domains shown)
VH: EVQLLESGGGLVQPGGSLRLSCAASGFTFSDYAMSWVRQAPGKGLEWVSAIYPGGGSTYYADSVKGRFTISRDNSKNTLYLQMNSLRAEDTAVYYCARNLFGFDYWGQGTLVTV
VL: B1 VL with R16Q, Y33A, S35Y, S51D, T91S, A94D, G98A
notes: also called SKAI-DS66 human IgG antibody
B3: SKAI-DS3 (antibody, V domains shown)
VH: EVQLLESGGGLVQPGGSLRLSCAASGFTFSDYSMSWVRQAPGKGLEWVSAISSDSSSTYYADSVKGRFTISRDNSENTLYLQMNSLRAEDTAVYYCAKAILRCIPLGCYYADAMDVWGQGTLVTV
VL: B1 VL with R16Q, Y33D, S35T, S51A, N54K, T91A, A94Y, G98A
notes: also called SKAI-DS3 human IgG antibody
B4: SKAI-DS15 (antibody, V domains shown)
VH: EVQLLESGGGLVQPGGSLRLSCAASGFTFSDYDMSWVRQAPGKGLEWVSMIYSGSSSKYYADSVKGRFTISRDNSKNTLYLQMNSLRAEDTAVYYCARVTGTCHSGSCYYSDAMDVWGQGTLVTV
VL: B1 VL with R16Q, T23S, Y33D, S35N, S51D, T91A, A94D
notes: also called SKAI-DS15 human IgG antibody
B5: SKAI-DS64 (antibody, V domains shown)
VH: B2 VH with A33S, A50G, P53H, G54S, G55D, T58K, N99F, L100D, F101P, G102V
VL: QSVLTQPPSASGTPGQRVTISCSGSSSNIGSNAVSWYQQLPGTAPKLLIYDNNHRPSGVPDRFSGSKSGTSASLAISGLRSEDEADYYCGSWDDSLNAYVFGGGTKLTVL
notes: also called SKAI-DS64 human IgG antibody

Target: SARS-CoV2 RBD antigen (Genscript) (SARS-CoV2, UniProt P0DTC2 319-541)
Assay: ELISA on RBD antigen, human IgG at 1 µg/mL, O.D. 450 nm

Row | Binder | binding result
1 | B1 | binds
2 | B2 | binds
3 | B3 | no binding (tested: 1 µg/mL)
4 | B4 | no binding (tested: 1 µg/mL)
5 | B5 | binds

From patent US20250002562A1 (Scripps Research, published 2025)
